# From the nanobody polyreactivity screen of Harvey et al. (2022)
# Experiment: yeast display, Sf9 membrane polyspecificity reagent, FACS + sequencing; frameworks hold sequencing errors
# How it was run: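 Synthetic nanobody libraries on Saccharomyces cerevisiae BJ5465 were galactose-induced for 36–48 hours, stained 1 hour at 4 °C with 10% biotinylated, detergent-solubilized Sf9 membrane reagent and enriched on streptavidin microbeads. FACS then separated cells into low and high (top ~1%) gates by anti-HA (expression) and streptavidin (reagent binding) fluorescence. Genes were colony-PCR amplified, MiSeq 2 × 250 sequenced and CDR-length filtered. A clone's polyreactivity label is that of its gate of origin.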
row,Sequence,polyreactivity (PSR sort gate)
1,QVQLVESAGGLVQAGGSLRLSCAASGSISAGNAMGWNRQAPGKERELVAAISGSGGSTYYADSVKGRFTISRYNAKNSVDLQMKSLKPEDTAVYYCAARGGYRLRYIPYVRYDYWGEGTQVTVSS,high polyreactivity
2,QVQLVESGGGLVQAGGSLSLSCAASARIFYGYAMGWYRQEPGKEREFVAAITSGGRTYYADSVKGRFTISRDNAKNTVYLQMNSLKPEDTAVYYCAAAQYYRYGYWGQGTQVTVSS,high polyreactivity
3,QVQLVESGGGLVQAGGSLRLSCAASGGTFPYNAMGWYRQAAGKERELVAAISSSGTSTYYADSVKRRFTISRDNAKNTVYLQMNSLKPEDTAVYYCNDYFKRYDYWGQGTQVTVSS,high polyreactivity
4,QVQLVESGGGIVQAGGSLRLSCAASGSTFATYAMGWYRQAHGKERELVAAITRSGGITYYADSVKGRFTISRDNAKKTVYLHMKSLKPEDTAVYYCNARTRSPTFSGRYYWGQATQVTVSS,high polyreactivity
5,QVQIVESGGGLVQAGGSLRLSCAASGFTFPHNAMGWYRQAPGKERELVAAITSSGGSTYYADSVKGRFTISRDNAKNPVYLEMNSLKPEDTAVYYCAAYWAYGGYESWGQGTQVTVSS,high polyreactivity
6,QVQLVESGGGLVQAGGSLRLSCAASGSIFGRNAMGWYRQAPGREREFVATITSRGGRTYYADSVKGRFTISRDNAKNTVYLQMNSLKPEDTAVYYCAADTYISTLKKYRLGDYWGQGTQVTVSS,low polyreactivity
7,QVQLVESGGGLVQAGGSLRLSCAASGFIFTKYTMAWYRQAPGKERELVAAITGRGTSTSADSVKGRFTISRDNAKNTVYLQMNSLKPEDTAVYYCAAVGWFADFLFSDINGYYWGQGTQVTVSS,low polyreactivity
8,QVLLQESGGLVQAGCSLRMSCAESGSISTALSMGWYRQAPGKERELVATISDGASTNYADSVKGRFTISRVNAKNTLYLQMNSLKPEDTEVYYCAAQSQYRPDHRYWGQGTKVTVSS,high polyreactivity
9,QVQLVESGGGLVQAGGSLRLSCAASGRTSLRNAMGWYRQAPGKEWELVATISQSGGRTHYADSVKGRFTISRENAKNTVYLQMNSLKPEDTAVYYCGAVARFSQYLYNYWGQGTQVTVSS,low polyreactivity
10,QVQLVESGGGLVQAGGSLRLSCAASGSTFFPNAMGWDRQAPGKERELVAAITRSDDDTYYADSVKGRFTISRVHAKNTVYLQMNCLKPEDTAVYYCAADGTSTDSPSWPGYEYWGQGTQVTVSS,low polyreactivity
11,QVQLVESGGGLVQAGGSLRLTCAASGSTFRLNAIGWYRQAPGKERELVAAISRSTGTTHYADSVKGRFTISRDNAKHTVYLQMNSLIPEDTAVYYCAAQGGDGVLALYYYWGQGTQVTVSS,low polyreactivity
12,QVQLVESGGGLVQAGGSLRLSCAASGRTFDHNAMGWYRQAPGKERELVAAITSRGGSTYYADSVKGRFTISRDNAKNTVYLQMNSLKPEDTAVYYCNRYKSSSYIRGDYWGQGTQVTVSS,high polyreactivity
13,QVQLVESGGGLVQAGGSLRLSCAASGYTFSDYAMGWYRQAPGKERELVAAISWSGGSTYYADSVKGRFTISRDNAKNTVFLQMNSLKPEDTAVYYCAAKWYAPDLLYYYWGQGTQVTVSS,low polyreactivity
14,QVQLVESGGGLVQAGGSLRLSCAASGYTFPRYTMGRYRQAPGKERELVAVIRRSGGTHYADSVKGRFTISRDNAKNTVYLLMYSLNPVDIAVYYCAVVSLLQNIPYGFWGQGTQVTVSS,high polyreactivity
15,QVQLVESGGGLVQAGGSLRLSCAASGSISTNYAMGWYRQAPGKERELVAAISSSGGSTYYADSVKGRFTISRDNAKNTVYLQMNSLKPEDTAVYYCRYKFGYWGQGTQVTVSS,high polyreactivity
16,QVQLVESGGGLVQAGGSLRLSCAASGRTVGYNAMGWYRQAPGKERELVAAISRSGDSTYYADSVKGRFTISRDNAKNTVYLQMNSLKPEDTAVYYCATRYVTTGYDYWGQGTQVTVSS,low polyreactivity
17,QVQLVESGGGLVQAGGSLRLICAASGSIFADYVMGWYRQAPGKERELVAAITIDGGSTYYADSVKGRFTISRDNAKNTVYLQMNSLKPEDTAVYYCAADSSGRSDSWGQGTQVTVSS,low polyreactivity
18,QVQLVESGGGLVQAGGSLRLSCAASGSILEPYAMGWYRQAPGKERELVAAISSSGGSTRYADSVKWRFTISRDNAKNTVYLQMNSLKPEDTAVYYCAARFRAKFNYWGQGTQVTVSS,high polyreactivity
19,QVQLVESGGGLVQAGGSLRLSCAASGFTFTAYAMGWYRQEPGKERELVAAITGTGGSTKYADSVKGRFTISRDNATNTVYLQMNSLKPEDTAVYYCAKRYRLRGRYDYWGQGTQVTVSS,high polyreactivity
20,QVQLVESGGRIVQAGGSLRLSCAASGSTFLYYDMGWYRQAPGKERELVAAITNGGNTYYADSVKGRFTISRDNAKNTVYLQKNSRKPEDTAVYYCAKLYTDAIVWSAYDYWGQGTQVTVSS,low polyreactivity
21,QVQLVESGGGLVQAGGSLRLRCAASGGTFYPYALGWYRQAPGKESELVAAISTSGGITYYADSVKARFTISRDNAKNTVYLQMNSLKPEDTAVYYCAAPVAYRGSRNFIYRYNYWGQGTQVTVSS,high polyreactivity
22,QVQLVESGGGLVQAGGSLRLSCAASGFYNTMGWYRQAPGKERELVAAISTGGITNYADSVKGRFTISRDNAKNTVYVLMNSLKPEDTAVYYCPADGYSTVSSSYAYWGQGTQVTVSS,low polyreactivity

row,Sequence,polyreactivity (PSR sort gate)
1,QVQRVESGGGLVQAGASLRLSCSASGRTFSRYAMGWYRQAPGKERELVAAIRGNSGNTYYADSVKGRFTISRDNAKNTVYLQMNSLKPEDTAVYYCAKPFNIWGQGTQVTVSS,high polyreactivity
2,QVQLVESGGGLVQAGGSLRLSCAASGSTFFTYAMGWYRQAPGKERELVAAISWSGGTTYYSDSVKWRFTISRDYAKNTDYLQMNSLKPEDTAGYYCASDRDGILKANDYWGQGTQVTVSS,low polyreactivity
3,QVQLVESGGGLVQAGGSLRLSCAASGRIFPGYAMGWYRQAPGKERELVAAISASGGSTYYADSVKGRFTISRDNAKNTVYLQMNSLKPEDTAVYDCNAVYRLIRFDYWGQGTQVTVSS,high polyreactivity
4,QVQLVESGGGLVQAGGSLRLSCAASGSILGYYAMGWYRQEPGKERELVAAISGRGGSTYYADSVKGRFTISRDNAKNSVYLHMNSLKPEDTAVYYCAVVWGSYYWGQGGGEYWGQGTQVTVSS,high polyreactivity
5,QVQLVESGGGLVQAGGSLRLSCAASGSIFWSYGMGWYRQAPGKERELVASTRYADSVKGRFTISRDNAKNTVYLQMNSLKPEDTAVYYCNVRYYGYRFGDDYWGQGTQVTVSS,low polyreactivity
6,QVQLVESGGGLVQAGGSLRLSCAAYGSSFNHYSMGWYRQAPGKERELVAAISWNGGSTYYADSVKGRFTISRDNAKNTVYLQMNSLKPEDTAVYYCNALVTTTPRYDYWGQGTQVTVSS,high polyreactivity
7,QLQLVETGGGLVQAGGSLRLSCAASGSIIAKNAKGWYSQAPGTDRELVAAISKSGGITYYADSVKGRFSISRDNAKNTVYLQINSLKPEDTAVYYCNALSAGYIGVASRYYYWGQGTQVTVSS,high polyreactivity
8,QVQLVESGGGLVQAGGRLRRICAASGRIYSRYTMGWYRQAPGKERQLVAVITSGGSTYYADSVKGRFTISRDNAKNTVYLQMNSLKPDDTAVYYCNAVRFTYGGYLRRYDYWGHGTQVTVSS,high polyreactivity
9,QVQLVESGGGLVQAGGSLRLSCAASGSIFAYNAMGWYRQAPGKEREFVAAISQCGGRTYYADSVKGRFTISRDNAKTTVYLQMNSLKPEDTAVYYCATDGIRLTRHRDYDYWGQGTQVTVSS,low polyreactivity
10,QVQLVESGGGLVQAGGSLRLSCAASGRIFGANAMGWYRQAPGKERELVAAISRTGGSTYYADSVKGRFTISRDNAKNTVYLQMNSLKPEDTAVYYCNAVYRYAHPMEYWGQGTQVTVSS,high polyreactivity
11,QVQLVESGGGLVQAGGSLRLSCAASGFTFLVYAMGWYRQAPGKERELVAAITWSGDSTYYADSVKGRFTISRDNAKNTVYLQMNSLKPEDTAVYYCAAAYRYGTLYYYWGQGTQVTGSS,low polyreactivity
12,QVQLVESGGGLVQAGGSLRLSCAPSGRIILRYTMGRYRQARGKERQLVAAISARTTGTYYADSVKGRFTISRDNAKNTFYLQLNSLKPEDTAVYYCAAKCKLSRVLYSWGQGTQVTVSS,low polyreactivity
13,QVQLVESGGGLVQAGGSLRLSCAASGKIFFRYTLGWYRQAPGKERELVAAISASGGSTYYADSVKGRFTISRDNAKNTVYLQMNSLKPEDTSVYYCAARILHYTSEYYYWGQGTQVTVSS,low polyreactivity
14,QVQLVESAGGLVQAGGSLRLSCAASGITFAWYAMGWYRQAPGKERELVAAITRGGGSTYYADSVKGRFTISRDNAKNTVYLQMNSLKPEATAVYYCAARPYSYPYGYWGQGTQVTVSS,low polyreactivity
15,QVQLVESGGGLVQAGGSLRLSCAASGLTFAGYAMGWYRQAPGKERELVAAISSGGRTNYADSVKGRFTISRDNAKNTVYLHMNSLKPADTAVYYCAARISTHAPHRRLTYEYWGQGTQVTVSS,low polyreactivity
16,QVQLVESGGGLVQAGGSLRLSCAASGRIFSSYAMGWYRQAPGKERELVASIDWSDGSTYYADSVKGRFTIARDNAKNTVYLQMTSLKPEDTAVYYCAADFVPYLIYGYWGQGTQVTVTS,low polyreactivity
17,QVQLVESGGGLVQAGGSLRLSCAASGLIFIVYAMGWYRQAPGKERELVAAISWSGGSTYYADSVKGRFTISRDNAKNTVYLQMNSLKPEDTAVYYCAAESYGVWDYEYWGQGTQVTVSS,high polyreactivity
18,QVQLVESGGGLVQAGGSLRLSCAASGSTFSYNTMGWYRQAPGKERELVASNTRSGGSTNYADSVKGRFTISRDNAKNTVYLQMNSLKPEDTAVYYCAKDYISVWNVRASDYYWYDYWGQGTQVTVSS,low polyreactivity
19,QVQLVESGGGLVQAGGSLRLSCAASGRNFRHYAMGWDRQAPGKERELVAAIRWSGGSTYYADSVKGRFTISRDNAKNTVYLQMNSLKPEETAVYYCATRDAVGHRPSGPYQLYDYWGQGTQVTVSS,low polyreactivity
20,QVQLVESGGGLVQAGGSLRLSCAASGIILRYYAMGWYRQAPGKERELVAAISGSGTRTYYADSVKGRFTISRDNAKNTVYLQMNSLKPEDTAVYYCAALVWGGYDYWGQGTQVTVSS,high polyreactivity
21,QVQLVESGGGLIQAGGSLRLSCAASGSNFRYYALGWYRQAPGKESELVAAISQSGGSTHYAESVKGRFTISRDNAKITVYLQMNSLKAEDTAVYYCAKHWGPGTQVTVSS,low polyreactivity
